Assay results from patent publication US20170015742A1 (published 2017).
Changes are numbered by the printed parent chain. Blank lines part the entries; values can stand above or below the binder they belong to.

Legend:
[1] = target: recombinant human VEGF165 (human, UniProt P15692 207-395); test: cell-based or functional assay
[2] = target: recombinant human PDGF-BB (human, UniProt P01127 82-190); test: cell-based or functional assay
Chain of recombinant human PDGF-BB (P01127 82-190 limits assumed): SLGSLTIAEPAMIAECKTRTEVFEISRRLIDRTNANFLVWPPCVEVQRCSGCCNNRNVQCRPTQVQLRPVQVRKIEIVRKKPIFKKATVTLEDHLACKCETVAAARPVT

Chain of recombinant human VEGF165 (P15692 other isoform, or with tags, fused parts or gaps limits assumed): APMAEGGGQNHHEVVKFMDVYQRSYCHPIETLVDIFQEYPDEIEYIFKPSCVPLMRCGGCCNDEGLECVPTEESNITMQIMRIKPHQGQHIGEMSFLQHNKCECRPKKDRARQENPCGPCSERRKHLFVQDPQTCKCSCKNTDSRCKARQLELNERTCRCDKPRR

Potency IC50 (nM) HMVEC-d hVEGF165 [1]: 0.067 nM
Potency IC50 (nM) NIH-3T3 hPDGF-BB [2]: 0.037 nM
B1: 1E3.4_GS_CL-33675 (bispecific antibody, human IgG1, kappa, L234A L235A)
heavy: EIQLVQSGSELKKPGASVKVSCKASGYPFTNSGMYWVKQAPGQGLEYMGWINTEAGKPTYADDFKGRFVFSLDTSVSTAYLQISSLKAEDTAVYFCARWGYISDNSYGWFDYWGQGTLVTVSSGGGGSGGGGSEVTLRESGPALVKPTQTLTLTCTFSGFSLSTYGMGVGWIRQPPGKALEWLANIWWDDDKYYNPSLKNRLTISKDTSKNQVVLTMTNMDPVDTATYYCARIESSGPKYSFDYWGQGTMVTVSSASTKGPSVFPLAPSSKSTSGGTAALGCLVKDYFPEPVTVSWNSGALTSGVHTFPAVLQSSGLYSLSSVVTVPSSSLGTQTYICNVNHKPSNTKVDKKVEPKSCDKTHTCPPCPAPEAAGGPSVFLFPPKPKDTLMISRTPEVTCVVVDVSHEDPEVKFNWYVDGVEVHNAKTKPREEQYNSTYRVVSVLTVLHQDWLNGKEYKCKVSNKALPAPIEKTISKAKGQPREPQVYTLPPSREEMTKNQVSLTCLVKGFYPSDIAVEWESNGQPENNYKTTPPVLDSDGSFFLYSKLTVDKSRWQQGNVFSCSVMHEALHNAYTQKSLSLSPGK
light: ATQLTQSPSSLSASVGDRVTISCRASEGVYSYMHWYQQKPGKQPKLLIYKASNLASGVPSRFSGSGSGTDFTLTISSLQPEDFATYFCHQNWNDPLTFGQGTKLEIKGGSGGGGSGGEIVLTQSPGTLSLSPGERATLSCRASSGSIWYSFVSWYQQKPGQAPRLLIYADDQRASGIPDRFSGSGSGTDFTLTISRLEPEDFAVYYCQSYGINIDVVFGGGTKVEIKRTVAAPSVFIFPPSDEQLKSGTASVVCLLNNFYPREAKVQWKVDNALQSGNSQESVTEQDSKDSTYSLSSTLTLSKADYEKHKVYACEVTHQGLSSPVTKSFNRGEC

Potency IC50 (nM) HMVEC-d hVEGF165 [1]: 0.092 nM
Potency IC50 (nM) NIH-3T3 hPDGF-BB [2]: 0.329 nM
B2: 1E3.4_GS_9E8.4 (bispecific antibody, human IgG1, kappa, L234A L235A)
heavy: B1 heavy with S236I, P238T, K239T
light: ATQLTQSPSSLSASVGDRVTISCRASEGVYSYMHWYQQKPGKQPKLLIYKASNLASGVPSRFSGSGSGTDFTLTISSLQPEDFATYFCHQNWNDPLTFGQGTKLEIKGGSGGGGSGGEFVLTQSPGTLSLSPGERATLSCERSSGDIGDSYVSWYQQKPGQAPRLVIYADDQRPSGIPDRFSGSGSGTDFTLTISRLEPEDFAVYYCQSYDINIDIVFGGGTKVEIKRTVAAPSVFIFPPSDEQLKSGTASVVCLLNNFYPREAKVQWKVDNALQSGNSQESVTEQDSKDSTYSLSSTLTLSKADYEKHKVYACEVTHQGLSSPVTKSFNRGEC

Potency IC50 (nM) HMVEC-d hVEGF165 [1]: 0.372 nM
Potency IC50 (nM) NIH-3T3 hPDGF-BB [2]: 0.039 nM
B3: CL-33675_GS_1E3.4 (bispecific antibody, human IgG1, kappa, L234A L235A)
heavy: EVTLRESGPALVKPTQTLTLTCTFSGFSLSTYGMGVGWIRQPPGKALEWLANIWWDDDKYYNPSLKNRLTISKDTSKNQVVLTMTNMDPVDTATYYCARIESSGPKYSFDYWGQGTMVTVSSGGGGSGGGGSEIQLVQSGSELKKPGASVKVSCKASGYPFTNSGMYWVKQAPGQGLEYMGWINTEAGKPTYADDFKGRFVFSLDTSVSTAYLQISSLKAEDTAVYFCARWGYISDNSYGWFDYWGQGTLVTVSSASTKGPSVFPLAPSSKSTSGGTAALGCLVKDYFPEPVTVSWNSGALTSGVHTFPAVLQSSGLYSLSSVVTVPSSSLGTQTYICNVNHKPSNTKVDKKVEPKSCDKTHTCPPCPAPEAAGGPSVFLFPPKPKDTLMISRTPEVTCVVVDVSHEDPEVKFNWYVDGVEVHNAKTKPREEQYNSTYRVVSVLTVLHQDWLNGKEYKCKVSNKALPAPIEKTISKAKGQPREPQVYTLPPSREEMTKNQVSLTCLVKGFYPSDIAVEWESNGQPENNYKTTPPVLDSDGSFFLYSKLTVDKSRWQQGNVFSCSVMHEALHNAYTQKSLSLSPGK
light: EIVLTQSPGTLSLSPGERATLSCRASSGSIWYSFVSWYQQKPGQAPRLLIYADDQRASGIPDRFSGSGSGTDFTLTISRLEPEDFAVYYCQSYGINIDVVFGGGTKVEIKGGSGGGGSGGATQLTQSPSSLSASVGDRVTISCRASEGVYSYMHWYQQKPGKQPKLLIYKASNLASGVPSRFSGSGSGTDFTLTISSLQPEDFATYFCHQNWNDPLTFGQGTKLEIKRTVAAPSVFIFPPSDEQLKSGTASVVCLLNNFYPREAKVQWKVDNALQSGNSQESVTEQDSKDSTYSLSSTLTLSKADYEKHKVYACEVTHQGLSSPVTKSFNRGEC

Potency IC50 (nM) HMVEC-d hVEGF165 [1]: 0.064 nM
Potency IC50 (nM) NIH-3T3 hPDGF-BB [2]: 0.031 nM
B4: CL-33675_GS_9E10.1 (bispecific antibody, human IgG1, kappa, L234A L235A)
heavy: EVTLRESGPALVKPTQTLTLTCTFSGFSLSTYGMGVGWIRQPPGKALEWLANIWWDDDKYYNPSLKNRLTISKDTSKNQVVLTMTNMDPVDTATYYCARIESSGPKYSFDYWGQGTMVTVSSGGGGSGGGGSEIQLVQSGSELKKPGASVKVSCKASGYTFTNYGMYWVKQAPGQGLEYMGWIDTETGRPTYADDFKGRFVFSLDTSVSTAYLQISSLKAEDTAVYFCARWSGDTTGIRGPWFAYWGQGTLVTVSSASTKGPSVFPLAPSSKSTSGGTAALGCLVKDYFPEPVTVSWNSGALTSGVHTFPAVLQSSGLYSLSSVVTVPSSSLGTQTYICNVNHKPSNTKVDKKVEPKSCDKTHTCPPCPAPEAAGGPSVFLFPPKPKDTLMISRTPEVTCVVVDVSHEDPEVKFNWYVDGVEVHNAKTKPREEQYNSTYRVVSVLTVLHQDWLNGKEYKCKVSNKALPAPIEKTISKAKGQPREPQVYTLPPSREEMTKNQVSLTCLVKGFYPSDIAVEWESNGQPENNYKTTPPVLDSDGSFFLYSKLTVDKSRWQQGNVFSCSVMHEALHNAYTQKSLSLSPGK
light: EIVLTQSPGTLSLSPGERATLSCRASSGSIWYSFVSWYQQKPGQAPRLLIYADDQRASGIPDRFSGSGSGTDFTLTISRLEPEDFAVYYCQSYGINIDVVFGGGTKVEIKGGSGGGGSGGDIRMTQSPSSLSASVGDRVTIECLASEDIYSDLAWYQQKPGKSPKLLIYNANGLQNGVPSRFSGSGSGTDYSLTISSLQPEDVATYFCQQYNYFPGTFGQGTKLEIKRTVAAPSVFIFPPSDEQLKSGTASVVCLLNNFYPREAKVQWKVDNALQSGNSQESVTEQDSKDSTYSLSSTLTLSKADYEKHKVYACEVTHQGLSSPVTKSFNRGEC

Potency IC50 (nM) HMVEC-d hVEGF165 [1]: 0.082 nM
Potency IC50 (nM) NIH-3T3 hPDGF-BB [2]: 0.037 nM
B5: CL-33675_GS_9E10.6 (bispecific antibody, human IgG1, kappa, L234A L235A)
heavy: EVTLRESGPALVKPTQTLTLTCTFSGFSLSTYGMGVGWIRQPPGKALEWLANIWWDDDKYYNPSLKNRLTISKDTSKNQVVLTMTNMDPVDTATYYCARIESSGPKYSFDYWGQGTMVTVSSGGGGSGGGGSEVQLVQSGAEVKKPGSSVKVSCKASGYTFTNYGMYWVRQAPGQGLEWMGWIDTETGRPTYADDFKGRFTFTADKSTSTAYMELSSLRSEDTAVYYCARWSGDTTGIRGPWFAYWGQGTLVTVSSASTKGPSVFPLAPSSKSTSGGTAALGCLVKDYFPEPVTVSWNSGALTSGVHTFPAVLQSSGLYSLSSVVTVPSSSLGTQTYICNVNHKPSNTKVDKKVEPKSCDKTHTCPPCPAPEAAGGPSVFLFPPKPKDTLMISRTPEVTCVVVDVSHEDPEVKFNWYVDGVEVHNAKTKPREEQYNSTYRVVSVLTVLHQDWLNGKEYKCKVSNKALPAPIEKTISKAKGQPREPQVYTLPPSREEMTKNQVSLTCLVKGFYPSDIAVEWESNGQPENNYKTTPPVLDSDGSFFLYSKLTVDKSRWQQGNVFSCSVMHEALHNAYTQKSLSLSPGK
light: B4 light with E142T, S192T

Potency IC50 (nM) HMVEC-d hVEGF165 [1]: 0.073 nM
Potency IC50 (nM) NIH-3T3 hPDGF-BB [2]: 0.317 nM
B6: 9E8.4_GS_9E10.1 (bispecific antibody, human IgG1, kappa, L234A L235A)
heavy: B4 heavy with S103I, P105T, K106T
light: EFVLTQSPGTLSLSPGERATLSCERSSGDIGDSYVSWYQQKPGQAPRLVIYADDQRPSGIPDRFSGSGSGTDFTLTISRLEPEDFAVYYCQSYDINIDIVFGGGTKVEIKGGSGGGGSGGDIRMTQSPSSLSASVGDRVTIECLASEDIYSDLAWYQQKPGKSPKLLIYNANGLQNGVPSRFSGSGSGTDYSLTISSLQPEDVATYFCQQYNYFPGTFGQGTKLEIKRTVAAPSVFIFPPSDEQLKSGTASVVCLLNNFYPREAKVQWKVDNALQSGNSQESVTEQDSKDSTYSLSSTLTLSKADYEKHKVYACEVTHQGLSSPVTKSFNRGEC

Potency IC50 (nM) HMVEC-d hVEGF165 [1]: 0.084 nM
Potency IC50 (nM) NIH-3T3 hPDGF-BB [2]: 1.54 nM
B7: 1B10.1_GS_3E2.1 (bispecific antibody, human IgG1, kappa, L234A L235A)
heavy: EVQLVESGGGLVQPGGSLRLSCAASGFSFSKYDMAWFRQAPGKGLEWVASITTSGVGTYYRDSVKGRFTVSRDNAKSTLYLQMNSLRAEDTAVYYCARGYGAMDAWGQGTTVTVSSGGGGSGGGGSEVQLVQSGAEVKKPGSSVKVSCKASGYTFTESYMYWVKQAPGQGLELIGRIDPEDGSTDYVEKFKNKATLTADKSTSTAYMELSSLRSEDTAVYFCARFGARSYFYPMDAWGQGTTVTVSSASTKGPSVFPLAPSSKSTSGGTAALGCLVKDYFPEPVTVSWNSGALTSGVHTFPAVLQSSGLYSLSSVVTVPSSSLGTQTYICNVNHKPSNTKVDKKVEPKSCDKTHTCPPCPAPEAAGGPSVFLFPPKPKDTLMISRTPEVTCVVVDVSHEDPEVKFNWYVDGVEVHNAKTKPREEQYNSTYRVVSVLTVLHQDWLNGKEYKCKVSNKALPAPIEKTISKAKGQPREPQVYTLPPSREEMTKNQVSLTCLVKGFYPSDIAVEWESNGQPENNYKTTPPVLDSDGSFFLYSKLTVDKSRWQQGNVFSCSVMHEALHNAYTQKSLSLSPGK
light: DIQMTQSPSSLSASVGDRVTITCKASQDIDDYLSWYQQKPGKSPKLVIYAATRLADGVPSRFSGSGSGTDYTLTISSLQPEDFATYYCLQSSSTPWTFGGGTKVEIKGGSGGGGSGGETVLTQSPATLSLSPGERATLSCRASESVSTLMHWYQQKPGQQPRLLIYGASNLESGVPARFSGSGSGTDFTLTISSLEPEDFAVYFCQQSWNDPWTFGGGTKVEIKRTVAAPSVFIFPPSDEQLKSGTASVVCLLNNFYPREAKVQWKVDNALQSGNSQESVTEQDSKDSTYSLSSTLTLSKADYEKHKVYACEVTHQGLSSPVTKSFNRGEC
